This test concerns the target Cyclophilin J (human) (UniProt Q9H2H8).
Chain of UniProt Q9H2H8 (Q9H2H8 whole entry): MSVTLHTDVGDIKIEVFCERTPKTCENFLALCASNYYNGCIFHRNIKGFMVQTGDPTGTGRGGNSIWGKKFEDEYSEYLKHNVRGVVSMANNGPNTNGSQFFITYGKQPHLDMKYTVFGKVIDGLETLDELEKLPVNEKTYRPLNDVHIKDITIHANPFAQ

Substance Cyclosporin A (peptide) had an inhibition of the PPIase activity of CYPJ (chymotrypsin-coupled assay, 13.1 μM CYPJ, 1-16 μM CsA) of 12 µM.
